Assay [1] relates to mouse melanoma B16-F10. Description: In vivo melanoma B16-F10 model (Example 22). Also on record: species or system C57BL/6 mice. Particulars: intraperitoneal 10 mg/kg on days 3 and 6. As for the experimental part: The drug efficacy of the anti-FSTL1 antibody was evaluated according to Examples 17 to 20 using other cancer-bearing models of C57BL/6 mice of the same strain as in Snail-positive tumor bone metastasis models. The “mouse melanoma B16-F10” is a parent line of the cell line forced to express Snail, which was transplanted in the bone metastasis models used in the preceding tests.
1. Experiment Group (n=5) 1. Mouse melanoma B16-F10+control IgG (anti-DNP mAb) 2. Mouse melanoma B16-F10+anti-FSTL mAb (#6-55)
• Day 0: transplantation of tumor cells (1×10^6 cells subcutaneously & 1×10^6 cells intravenously) • Day 3: intraperitoneal administration of the antibody (first dose, corresponding to 200 μg/mouse=10 mg/kg) • Day 6: intraperitoneal administration of the antibody (second dose, corresponding to 200 μg/mouse=10 mg/kg) • Day 15 various immunological assays
• Effects on the growth of subcutaneous tumor (calculation of tumor volume by tumor size measurement): measured 6, 10, and 14 days after tumor implantation (FIG. 16A) • Effects on weight loss (FIG. 16B)

In assay [2] the test system is mouse bone marrow cells. The experiment in a line: Inhibition of induction of MSCs, cancer-associated MSCs and M-MDSCs by FSTL1 in mouse bone marrow cells (Examples 13-15). Format: cell-based. As to conditions: Example 15: 20 ng/mL FSTL1; antibody 20.0, 10.0, 5.0 or 2.5 μg/ml; 8 days; FIG. 104A. As for the experimental part:
Mouse bone marrow cells prepared in the same way as in Example 4 were supplemented with 20 ng/mL ([…], #7-34, #8-1, or #8-4), an anti-PD-L1 antibody reported to have an immunosuppression-mitigating effect, or a control antibody anti-DNP antibody and cultured under stimulation. 8 days thereafter, the number of cells was counted while the cells were stained with a PE-Cy5-labeled anti-CD45 antibody, a PE-labeled anti-ALCAM antibody, a FITC-labeled anti-CD271 antibody (Abcam plc, Cat. No. AB62122), a FITC-labeled anti-CD11b antibody (BD Pharmingen/Becton, Dickinson and Company, Cat. No. 553310), and a PE-Cy5-labeled anti-Gr1 antibody (eBioscience, Cat. No. 15-5931) in order to detect MSCs (CD45− negative cells), cancer-associated MSCs (CD45-negative, ALCAM-positive, and CD271-positive cells) which are MSCs increasing in number in association with cancer metastasis, and monocytic myeloid-derived suppressor cells (M-MDSCs: CD11b-positive, Gr1-positive, and ALCAM-positive cells) increasing in number together with cancer-associated MSCs, and the contents of the cells mentioned above were analyzed by flow cytometry using FACScan to calculate the percentage and number of MSCs per culture (FIG. 102). […]
The antibody clone (#6-55, #7, #10, #13, or #22) was evaluated for its activity by the same testing method as in Example 13. #6-55 was set as a positive control for activity. […]

For assay [3], the system named is human pancreatic cancer cell line Panc1. Description: Action on Panc1 under FSTL1 stimulation (Example 26). In kind it is cell-based. As to conditions: Panc1 stimulated with FSTL1 for 3 days, antibody 5 μg/ml; FIG. 114B. An excerpt: Specifically, the influence of the anti-FSTL1 antibody on proliferative capacity and invasive capacity was studied using various human tumor cells, regardless of the presence or absence of the expression of Snail or FSTL1. […] After culture for 3 days, the number of cells per culture system was counted to evaluate the proliferative capacity of the cells. […] Then, the number of cells that permeated the membranes was counted under a microscope to evaluate the invasive capacity of the cells.
Next, in order to examine how surrounding tumor cells were changed in a cancer microenvironment by receiving FSTL1 produced by Snail/FSTL1-expressing cells, and how the anti-FSTL1 antibody acts thereon, a human pancreatic cancer cell line Panc1 confirmed to express Snail or FSTL1 only slightly was stimulated with FSTL1 for 3 days. The anti-FSTL1 antibody (#6-55, 5 μg/ml) or a control antibody (aHema, 5 μg/ml) was added to this culture system, and subsequent change in cell function was analyzed in the same way as in the preceding paragraph. […]

B1: #6-55: chicken-mouse chimeric anti-FSTL1 antibody clone; variable regions SEQ ID NO: 783 (light), 785 (heavy) (antibody, V domains shown)
VH: AVTLDESGGGLQTPGGALSLVCKGSGFTFTSVTMQWVRQAPGKGLEWVASVCSGSSTYYAPAVKGRATISRDNGQSTVRLQLSNLRPEDTGTYYCAKIAGRARWSCTSAAYNIDAWGHGTEVIVSS
VL: ASTQPSSVSAIPGETVKITCSGGGNNYGWYQQRSPGSAPVTVIYYNDNRPSNIPSRFSGSTSGSTSTLTITGVQADDEAIYYCGSWDSNTDSGIFGAGTTLTVL
modifications: mouse constant regions
Turning to B1, in assay [1], the weight loss result is “suppressive activity against weight loss was also exhibited”. In assay [1] (vs control antibody), the subcutaneous tumor growth result is reported as “strongly suppressed”. Also, in assay [2], the “inhibitory activity against the induction of MSCs, cancer-associated MSCs, and M-MDSCs by FSTL1” value is “at the same level”. Also, in assay [3], the cell growth result was “reduced” and the “enhancement of invasive capacity by FSTL1” value is listed as “canceled”.

Values taken from patent US20180021429A1, “ANTICANCER AGENTS OR ANTIMETASTATIC AGENTS USING FSTL1 AND COMBINATION DRUG THEREOF” (PHARMA FOODS INTERNATIONAL CO., LTD., priority 2015, published 2018).
